The values below come from US4605614A, “Method for measuring plasmin” (Nitto Boseki Co., Ltd., priority 1981, dated 1986).

Holding throughout (assay): Km, Vmax and Vmax/Km of substrates for plasmin (pig)
Holding throughout (format): biochemical, Porcine (pig)

Substrate in data set [1]: Cc1ccc(CCNC(=O)CC[C@@H](N)C(=O)N[C@@H](Cc2ccccc2)C(=O)N[C@@H](CCCCN)C(=O)Nc2ccc([N+](=O)[O-])cc2)cc1
The following applies: other: TABLE 1, PNA substrates, plasmin (pig), 405 nm.

Substrate in data set [2]: NCCCC[C@H](NC(=O)[C@H](Cc1ccccc1)NC(=O)[C@H](N)CCC(=O)NCCCc1ccccc1)C(=O)Nc1ccc([N+](=O)[O-])cc1
The following applies: other: TABLE 1, PNA substrates, plasmin (pig), 405 nm.

Substrate in data set [3]: Cc1ccc(S(=O)(=O)NCCCC[C@H](N)C(=O)N[C@@H](Cc2ccccc2)C(=O)N[C@@H](CCCCN)C(=O)Nc2ccc(O)c(C(=O)O)c2)cc1
The following applies: other: TABLE 2, CHA substrates, plasmin (pig), 2,6-xylenol 615 nm.

Substrate in data set [4]: Cc1ccc(C(=O)NCCCC[C@@H](N)C(=O)N[C@@H](Cc2ccccc2)C(=O)N[C@@H](CCCCN)C(=O)Nc2ccc([N+](=O)[O-])cc2)cc1
The following applies: other: TABLE 1, PNA substrates, plasmin (pig), 405 nm.

Substrate in data set [5]: CCCC(=O)NCCCC[C@@H](N)C(=O)N[C@@H](Cc1ccccc1)C(=O)N[C@@H](CCCCN)C(=O)Nc1ccc(O)c(C(=O)O)c1
The following applies: other: TABLE 2, CHA substrates, plasmin (pig), 2,6-xylenol 615 nm.

Substrate in data set [6]: Cc1ccc(S(=O)(=O)NCCCC[C@@H](N)C(=O)N[C@@H](Cc2ccccc2)C(=O)N[C@@H](CCCCN)C(=O)Nc2ccc([N+](=O)[O-])cc2)cc1
Substrate in data set [7]: NCCCC[C@H](NC(=O)[C@H](Cc1ccccc1)NC(=O)[C@H](N)CCCCNC(=O)OCc1ccccc1)C(=O)Nc1ccc(O)c(C(=O)O)c1
The following applies: other: TABLE 2, CHA substrates, plasmin (pig), 2,6-xylenol 615 nm.

Substrate in data set [8]: CC(C)C[C@H](NC(=O)[C@H](N)C(C)C)C(=O)N[C@@H](CCCCN)C(=O)Nc1ccc([N+](=O)[O-])cc1
Substrate in data set [9]: NCCCC[C@H](NC(=O)[C@H](Cc1ccccc1)NC(=O)[C@H](N)CCC(=O)OC1CCCCC1)C(=O)Nc1ccc([N+](=O)[O-])cc1
The following applies: other: TABLE 1, PNA substrates, plasmin (pig), 405 nm.

Substrate in data set [10]: NCCCC[C@@H](N)C(=O)N[C@@H](Cc1ccccc1)C(=O)N[C@@H](CCCCN)C(=O)Nc1ccc(O)c(C(=O)O)c1
The following applies: other: TABLE 2, CHA substrates, plasmin (pig), 2,6-xylenol 615 nm.

Substrate in data set [11]: Cc1ccc(S(=O)(=O)NCCCC[C@@H](N)C(=O)N[C@@H](CC(C)C)C(=O)N[C@@H](CCCCN)C(=O)Nc2ccc([N+](=O)[O-])cc2)cc1
The following applies: other: TABLE 1, PNA substrates, plasmin (pig), 405 nm.

Substrate in data set [12]: NCCCC[C@H](NC(=O)[C@H](Cc1ccccc1)NC(=O)[C@H](N)CCCCNC(=O)Cc1ccccc1)C(=O)Nc1ccc(O)c(C(=O)O)c1
The following applies: other: TABLE 2, CHA substrates, plasmin (pig), 2,6-xylenol 615 nm.

Substrate in data set [13]: CC(C)[C@@H](N)C(=O)N[C@@H](Cc1ccccc1)C(=O)N[C@@H](CCCCN)C(=O)Nc1ccc(O)c(C(=O)O)c1
The following applies: other: TABLE 2, CHA substrates, plasmin (pig), 2,6-xylenol 615 nm.

Substrate in data set [14]: NCCCC[C@H](NC(=O)[C@H](Cc1ccccc1)NC(=O)[C@H](N)CCCCNS(=O)(=O)c1ccc2ccccc2c1)C(=O)Nc1ccc([N+](=O)[O-])cc1
The following applies: other: TABLE 1, PNA substrates, plasmin (pig), 405 nm.

Substrate in data set [15]: Cc1cc(C)c(S(=O)(=O)NCCCC[C@@H](N)C(=O)N[C@@H](Cc2ccccc2)C(=O)N[C@@H](CCCCN)C(=O)Nc2ccc(O)c(C(=O)O)c2)c(C)c1
The following applies: other: TABLE 2, CHA substrates, plasmin (pig), 2,6-xylenol 615 nm.

Substrate in data set [16]: NCCCC[C@H](NC(=O)[C@H](Cc1ccccc1)NC(=O)[C@H](N)CCCCNC(=O)c1ccccc1)C(=O)Nc1ccc(O)c(C(=O)O)c1
The following applies: other: TABLE 2, CHA substrates, plasmin (pig), 2,6-xylenol 615 nm.

Substrate in data set [17]: NCCCC[C@H](NC(=O)[C@H](Cc1ccccc1)NC(=O)[C@H](N)CCC(=O)NCCc1ccccc1)C(=O)Nc1ccc(O)c(C(=O)O)c1
The following applies: other: TABLE 2, CHA substrates, plasmin (pig), 2,6-xylenol 615 nm.

Substrate in data set [18]: NCCCC[C@H](NC(=O)[C@H](Cc1ccccc1)NC(=O)[C@H](N)CCC(=O)OCCc1ccccc1)C(=O)Nc1ccc([N+](=O)[O-])cc1
The following applies: other: TABLE 1, PNA substrates, plasmin (pig), 405 nm.

Substrate in data set [19]: NCCCC[C@H](NC(=O)[C@H](Cc1ccccc1)NC(=O)[C@H](N)CCC(=O)NCCc1ccccc1)C(=O)Nc1ccc([N+](=O)[O-])cc1
The following applies: other: TABLE 1, PNA substrates, plasmin (pig), 405 nm.

Substrate in data set [20]: Cc1ccc(S(=O)(=O)NCCCC[C@@H](N)C(=O)N[C@@H](CC(C)C)C(=O)N[C@@H](CCCCN)C(=O)Nc2ccc(O)c(C(=O)O)c2)cc1
The following applies: other: TABLE 2, CHA substrates, plasmin (pig), 2,6-xylenol 615 nm.

[21] abbreviates: other: Porcine Plasmin, comparison table in description.
The mark [22] stands for this setting: other: TABLE 1, PNA substrates, plasmin (pig), 405 nm.

B1: plasmin (pig) (Sus scrofa) (protein)
chain: RIYLSECKTGNGKNYRGTTSKTKSGVICQKWSVSSPHIPKYSPEKFPLAGLEENYCRNPDNDEKGPWCYTTDPETRFDYCDIPECEDECMHCSGEHYEGKISKTMSGIECQSWGSQSPHAHGYLPSKFPNKNLKMNYCRNPDGEPRPWCFTTDPNKRWEFCDIPRCTTPPPTSGPTYQCLKGRGENYRGTVSVTASGHTCQRWSAQSPHKHNRTPENFPCKNLEENYCRNPDGETAPWCYTTDSEVRWDYCKIPSCGSSTTSTEYLDAPVPPEQTPVAQDCYRGNGESYRGTSSTTITGRKCQSWVSMTPHRHEKTPGNFPNAGLTMNYCRNPDADKSPWCYTTDPRVRWEYCNLKKCSETEQQVTNFPAIAQVPSVEDLSEDCMFGNGKRYRGKRATTVAGVPCQEWAAQEPHRHSIFTPETNPRAGLEKNYCRNPDGDDNGPWCYTTNPQKLFDYCDVPQCVTSSFDCGKPKVEPKKCPARVVGGCVSIPHSWPWQISLRHRYGGHFCGGTLISPEWVLTAKHCLEKSSSPSSYKVILGAHEEYHLGEGVQEIDVSKLFKEPSEADIALLKLSSPAIITDKVIPACLPTPNYVVADRTACYITGWGETKGTYGAGLLKEARLPVIENKVCNRYEYLGGKVSPNELCAGHLAGGIDSCQGDSGGPLVCFEKDKYILQGVTSWGLGCALPNKPGVYVRVSRFVTWIEEIMRRN
As for B1, the Km in data set [1] is 39.4 µM; in data set [2], 39.3 µM; in [3] it was 292 µM; in data set [4], 15.5 µM; in [5] it was 239 µM; in data set [6] (setting [21]) it was 16 µM. Moreover, the Km in data set [6] (setting [22]) was 15.8 µM; in data set [7] it was 496 µM; in [8] (setting [21]) it was 348 µM; in data set [8] (setting [22]), 348 µM; in [9], 32.2 µM; in [10], 222 µM. Also, the Km in data set [11] was found to be 189 µM; in data set [12] it was 357 µM; in data set [13] it was 631 µM; in data set [14], 17.9 µM; in data set [15], 272 µM; in data set [16] it was 334 µM. Besides, the Km in [17] was found to be 397 µM; in data set [18] it was 31.1 µM; in data set [19], 27.9 µM; in data set [20], 1000 µM.
